Where a chain is given by its changes, count along the chain named.

Usually IC50 stands for the concentration that inhibits the measured activity by half.

For test [1], the target named is T1, human Flag-tagged soluble TWEAK (amino acids 106-249) (human, UniProt O43508 106-249).
T1 construct: the tag is put first here only by convention; also called Human TWEAK; not shown: Flag tag
T1 sequence (looked up): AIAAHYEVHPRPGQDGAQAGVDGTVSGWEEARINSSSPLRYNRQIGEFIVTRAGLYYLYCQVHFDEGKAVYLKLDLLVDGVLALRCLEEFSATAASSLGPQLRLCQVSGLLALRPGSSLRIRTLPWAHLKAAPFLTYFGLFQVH
Kind of test: receptor interaction ELISA: antibody pre-incubated with human Flag-tagged soluble TWEAK, binding to coated human Fn14:Fc. On the procedure: Blocking of human TWEAK/human Fn14 interaction was shown by receptor interaction ELISA. 96-well Maxisorp® plates (Nunc) were coated with 100 μl 1 μg/ml human Fn14:Fc (extracellular domain of human Fn14 (amino acids 1-75) fused to Fc portion of human IgG1) in PBS per well for 1.5 h at room temperature and blocked with a solution of 5% FBS in PBS for 30 minutes at room temperature under shaking. […] Wells were filled with 100 μl of anti-FLAG-HRP detection antibody, diluted 1:5000 in blocking buffer, and incubated for 1 h at room temperature. After four more wash steps, the signal was developed by addition of 100 μl 3,3,5,5-Tetramethylbenzidine (TMB) solution for approximately ten minutes. The reaction was stopped by adding 100 μl of 1 N HCl, and absorbance measured at 450 nm (reference wavelength 620 nm).
Background: ELISA stands for enzyme-linked immunosorbent assay.

Test [2] addresses T2, Biotinylated human soluble TWEAK (human, UniProt O43508 99-249, limits assumed, biotinylated (sites not given)).
T2 construct: also called Human TWEAK
T2 sequence (looked up): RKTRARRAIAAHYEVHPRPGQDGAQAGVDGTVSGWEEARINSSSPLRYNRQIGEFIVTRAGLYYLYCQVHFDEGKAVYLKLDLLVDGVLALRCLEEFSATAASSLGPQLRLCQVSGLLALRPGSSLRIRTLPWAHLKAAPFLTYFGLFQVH
The test can be described thus: Biacore SPR, biotinylated human soluble TWEAK on streptavidin sensor, antibody 100 nM as analyte, 25° C. On the procedure: A Biacore 2000 instrument was used with a Biacore streptavidin coated sensor mounted into the system. The system buffer HBS-ET (10 mM HEPES pH 7.4, 150 mM NaCl, 1 mM EDTA, 0.05% Tween® 20) was used at a flow rate of 100 μl/min. The sample buffer was the system buffer. Biotinylated human soluble TWEAK and biotinylated murine soluble TWEAK was immobilized on different flow cells on the SA sensor at 150 RU each. The flow cell FC1 was used as a blank reference cell. Each antibody was injected into the system as an analyte at 100 nM at 100 μl/min for 2 min association time. The dissociation of the immunecomplexes were monitored for 5 min. The sensor surface was washed with HBS-ET for 10 seconds and regenerated using 2×2 minutes injections with 10 mM glycine pH 2.25. This procedure was done at 25° C. The kinetically rate limiting step of the complex dissociation phase in the interval [240 s-300 s] was taken to calculate the dissociation rate kd [1/s] (Biacore Evaluation Software 4.0). According to the equation t1/2 diss=ln(2)/(60×kd), the half-life of each immunocomplexe in minutes was calculated.

Test [3] deals with T3, Human recombinant soluble TWEAK (human, UniProt O43508 99-249, limits assumed).
T3 sequence (looked up): T2 sequence (looked up)
Kind of test: cell-based or functional assay.

B1: TW212 (antibody)
VL: DIVLTQSPAYLTMSPGQTTTISCKASQSVSIGPIHLMHWYQQKPGQPPRLLIYGASNPESGVPARFSGSGSGTDFTLTIHPVEADDAATYFCQQGKESPRTFGPGTKLEITRADAKPTVSIFPPSSEQLGTGSATLVCFVNNFYPKDINVKWKVDGSEKRDGVLQSVTDQDSKDSTYSLSSTLSLTKADYERHNLYTCEVTHKTSTAAIVKTLNRNEC
VH: QVQLQESGPGLLKPAQSLSLTCTVTGYSIRSGYWWSWIRQQPGKGLEWMGQIYNKGNTDNNPSLKSQITMTVDTSKNQFFLRLRSVTTEDTAVYYCARVFWDDAYFDVWGQGIQVTVSSATTTAPSVYPLAPACDSTTSTTNTVTLGCLVKGYFPEPVTVSWNSGALTSGVHTFPSVLHSGLYSLSSSVTVPSSTWPSQTVTCNVAHPASSTKVDKKIVPGDGSGCKPCTCPGPEVSSVFIFPPKPKDVLTISLSPKVTCVVVDISQDDPEVQFSWFIDGKEVHTAVTQPREEQFNSTYRMVSVLPILHQDWLNGKEFKCKVNSPAFPVPIEKTISKRRGQLQVPQVYTMPPPKEQLTQSQVSLTCMIKGFYPEDIDVAWQKNGQPEQSFKNTPPVLDTDETYFLYSKLDVKKDDWEKGDTFTCSVVHEALHNHHTEKTLSQRPGK
notes: Armenian hamster monoclonal antibody; also called Antibody 212
In the case of B1, the half-maximal inhibitory concentration (IC50) in test [1] was 0.0151 µg/mL. The “t/2 diss [min] 25° C.” value in test [2] turned out to be 20 min. For the same molecule, the “IL-8 Secretion IC50” value in test [3] turned out to be 0.112 µg/mL.

B2: Antibody 15 (antibody, V domains shown)
VH: QVQLQESGPGLVKPSETLSLTCAVSGYSIRSGYWWSWIRQPPGKGLEWIGQIYNKGNTDNNPALKSRVTISVDTSKNQFSLKLSSVTAADTAVYYCARVFWDDAYFDVWGQGTMVTVSS
VL: EIVLTQSPATLSLSPGERATLSCKASQSVSIGPIHLMHWYQQKPGQAPRLLIYGASNPESGIPARFSGSGSGTDFTLTISSLEPEDFAVYYCQQGKESPRTFGQGTKLEIK
B2: the IC50 in test [1] turned out to be 0.014 µg/mL. For the same molecule, the “t/2 diss. [min] 25° C.” value in test [2] is 18 min. The “IL-8 Secretion IC50” value in test [3] is 0.141 µg/mL.

B3: Antibody 23 (antibody, V domains shown)
VH: B2 VH with A23T
VL: B2 VL with A9G, A64D, S81R
For B3, in test [1], the concentration for half-maximal inhibition (IC50) was 0.013 µg/mL. The “t/2 diss. [min] 25° C.” value in test [2] was determined as 17 min. Moreover, the “IL-8 Secretion IC50” value in test [3] came to 0.242 µg/mL.

B4: Antibody 20 (antibody, V domains shown)
VH: B2 VH with P41Q, N61S, A63S, R67Q
VL: B2 VL
For B4, the IC50 in test [1] was found to be 0.035 µg/mL. Moreover, the “t/2 diss. [min] 25° C.” value in test [2] is 15 min. Moreover, the “IL-8 Secretion IC50” value in test [3] came to 0.401 µg/mL.

B5: Antibody 17 (antibody, V domains shown)
VH: B2 VH with A23T
VL: B2 VL
For the molecule B5, in test [1], the IC50 worked out at 0.014 µg/mL. In addition, the “t/2 diss. [min] 25° C.” value in test [2] was 18 min. Besides, in test [3], the “IL-8 Secretion IC50” value came out at 0.146 µg/mL.

B6: Antibody 26 (antibody, V domains shown)
VH: B2 VH with P41Q, N61S, A63S, R67Q
VL: B2 VL with A9G, A64D, S81R
As for B6, the half-maximal inhibitory concentration (IC50) in test [1] came out at 0.094 µg/mL. The “t/2 diss. [min] 25° C.” value in test [2] amounted to 16 min. For the same molecule, in test [3], the “IL-8 Secretion IC50” value worked out at 0.222 µg/mL.

B7: Antibody 19 (antibody, V domains shown)
VH: B2 VH with P41Q, R67Q
VL: B2 VL
On to B7, for which the half-maximal inhibitory concentration (IC50) in test [1] stood at 0.015 µg/mL. In addition, in test [2], the “t/2 diss. [min] 25° C.” value was 17 min. In addition, the “IL-8 Secretion IC50” value in test [3] was determined as 0.253 µg/mL.

B8: Antibody 25 (antibody, V domains shown)
VH: B2 VH with P41Q, R67Q
VL: B2 VL with A9G, A64D, S81R
Consider B8, for which, in test [1], the concentration for half-maximal inhibition (IC50) worked out at 0.042 µg/mL. In addition, the “t/2 diss. [min] 25° C.” value in test [2] is 17 min. Also, in test [3], the “IL-8 Secretion IC50” value stood at 0.475 µg/mL.

B9: Antibody 16 (antibody, V domains shown)
VH: B2 VH with N61S, A63S
VL: B2 VL
B9: the concentration for half-maximal inhibition (IC50) in test [1] was found to be 0.022 µg/mL. In test [2], the “t/2 diss. [min] 25° C.” value was found to be 15 min. Besides, the “IL-8 Secretion IC50” value in test [3] stood at 0.163 µg/mL.

B10: Antibody 18 (antibody, V domains shown)
VH: B2 VH with A23T, N61S, A63S
VL: B2 VL
B10 gave an IC50 in test [1] of 0.016 µg/mL. Further, the “t/2 diss. [min] 25° C.” value in test [2] was determined as 16 min. In test [3], the “IL-8 Secretion IC50” value came out at 0.189 µg/mL.

B11: Antibody 21 (antibody, V domains shown)
VH: B2 VH
VL: B2 VL with A9G, A64D, S81R
B11: in test [1], the half-inhibitory concentration (IC50) amounted to 0.012 µg/mL. Moreover, the “t/2 diss. [min] 25° C.” value in test [2] turned out to be 17 min. In test [3], the “IL-8 Secretion IC50” value was 0.224 µg/mL.

B12: Antibody 24 (antibody, V domains shown)
VH: B2 VH with A23T, N61S, A63S
VL: B2 VL with A9G, A64D, S81R
B12 displayed an IC50 in test [1] of 0.02 µg/mL. Also, the “t/2 diss. [min] 25° C.” value in test [2] worked out at 15 min. Besides, the “IL-8 Secretion IC50” value in test [3] worked out at 0.165 µg/mL.

B13: Antibody 22 (antibody, V domains shown)
VH: B2 VH with N61S, A63S
VL: B2 VL with A9G, A64D, S81R
As to B13, in test [1], the IC50 is 0.017 µg/mL. The “t/2 diss. [min] 25° C.” value in test [2] came out at 14 min. Further, the “IL-8 Secretion IC50” value in test [3] turned out to be 0.249 µg/mL.

B14: TW212chi (antibody, human IgG1)
light: DIVLTQSPAYLTMSPGQTTTISCKASQSVSIGPIHLMHWYQQKPGQPPRLLIYGASNPESGVPARFSGSGSGTDFTLTIHPVEADDAATYFCQQGKESPRTFGPGTKLEITRTVAAPSVFIFPPSDEQLKSGTASVVCLLNNFYPREAKVQWKVDNALQSGNSQESVTEQDSKDSTYSLSSTLTLSKADYEKHKVYACEVTHQGLSSPVTKSFNRGEC
heavy: not shown
In test [1], B14 displayed a half-maximal inhibitory concentration (IC50) of 0.0134 µg/mL. Also, the “t/2 diss [min] 25° C.” value in test [2] amounted to 13 min.

B15: TW202 (antibody, V domains shown)
VH: QLQLQESGLGLVKPSQSLTLTCSVTGFSITTPDYSWHWIRQLPGQTLEWMGFLYYEGDTYYNPSLKSRISIARDASKNQFFLQLKAVTTEDTATYFCARRKYSGYGNWFAYWGQGTLVTVSL
VL: QPVLTQSPSASASLRASVKLTCTLSSQHSTYYIEWYQQRPDKAPKYVMYLDSDGSHIKGDGIPDRFSGSSSGAHRYLSISNLQPEDEAIYHCGVYDSTAGAVFGSGTQLTVLG
notes: Armenian hamster monoclonal antibody; also called Antibody 202
With B15, the IC50 in test [1] turned out to be 0.0092 µg/mL. Besides, the “t/2 diss [min] 25° C.” value in test [2] came to 53 min. In addition, the “IL-8 Secretion IC50” value in test [3] came out at 0.146 µg/mL.

B16: TW205 (antibody, V domains shown)
VH: B15 VH with L2I, Q3H, L42F, A86S, A98V, L117Q, L122S
VL: B15 VL with S7A, R39H, K45R, L50V, I62V, H74R
notes: Armenian hamster monoclonal antibody; also called Antibody 205
Turning to B16, the IC50 in test [1] worked out at 0.0088 µg/mL. The “t/2 diss [min] 25° C.” value in test [2] is 30 min. Moreover, the “IL-8 Secretion IC50” value in test [3] was 0.151 µg/mL.

The record behind these values is patent US20100255008A1 (Hoffmann-La Roche, published 2010).
